Laboratory results: the supplement of paper PMC10266784

B1: library; numbered along this chain (parent)
chain: MAAAAAAAAEQQSSNGPVKKSMREKAVERRSVNKEHNSNFKAGYIPIDEDRLHKTGLRGRKGNLAICVIILLFILAVINLIITLVIWAVIRIGPNGCDSMEFHESGLLRFKQVSDMGVIHPLYKSTVGGRRNENLVITGNNQPIVFQQGTTKLSVENNKTSITSDIGMQFFDPRTQNILFSTDYETHEFHLPSGVKSLNVQKASTERITSNATSDLNIKVDGRAIVRGNEGVFIMGKTIEFHMGGNMELKAENSIILNGSVMVSTTRLPSSSSGDQLGSGDWVRYKLCMCADGTLFKVQVTSQNMGCQISDNPCGNTH

Variants of: B1
Test: SGCB cell-surface expression functional score (HA stain, bin4 vs bin1, normalised to synonymous) (log10 ratio); higher = more cell-surface SGCB (functional)
Procedure, shortened: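 HEK293 cells stably expressing alpha-, gamma- and delta-sarcoglycan received codon-saturation libraries of HA-tagged, YFP-fused human beta-sarcoglycan by lentiviral transduction at MOI <0.1, performed in duplicate. Cells positive for YFP were sorted after 72 hours and cultured for 5–7 days, then stained on ice with Alexa Fluor 647 anti-HA and fixed. Fixed cells were sorted into four 5% intensity bins and amplicon-sequenced, and the log ratio of highest-bin to lowest-bin variant frequency, as a median over codons and transductions, gives the functional score. Per section, synonymous variants were scaled to mean 0, SD 0.5.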

Variant | SGCB cell-surface expression functional score (log10)
L268Y | -0.02
Q303F | 0.11
I225F | 0.71
S302G | -0.36
A65G | -0.03
G306K | -0.17
R91T | -2.04
H242T | 0.66
S264D | 0.96
V298R | -0.21
G274R | -0.37
M243A | 0.83
C307Y | 0.26
R23W | -0.61
E10T | 0.27
E28H | -0.19
T213C | -0.94
L71V | 0.22
K19Y | 0.34
N316A | -0.18
V220M | 0.77
A88Q | 0.15
N304Y | -0.11
C314Q | 0.15

Variant | SGCB cell-surface expression functional score (log10)
G117F | -1.46
V89D | -2.32
N37T | -0.11
R130W | -0.57
A3T | 0.17
K25V | 0.16
N217H | 0
E28W | -0.12
I86A | -0.08
G62L | 0.53
N246W | -0.217
V200Q | -0.73
V232P | -0.64
L122K | -0.12
V283I | 0.38
I166S | -0.76
R131W | 0.6
N140K | -0.48
H190T | 0.55
V155W | -1.19
S13N | 0.08
A6D | 0.24
S105G | -0.15
S272E | 0.23

Variant | SGCB cell-surface expression functional score (log10)
M168W | -2.06
S214I | -0.69
Q11R | 0.14
G293C | 0.03
Q147K | 0.26
Y285R | -1.05
Y285A | -0.68
L277W | 0.44
V232N | -1.99
S154C | 0.11
E24F | -0.05
T266C | 1.12
Q147N | 0.29
S271I | -0.19
L84F | -0.57
A7W | 0.57
G16M | 0.4
V85Y | -0.17
Q299V | 0.01
K237N | 0.32
A76K | -0.81
S164R | -0.91
V18M | -0.08
V136D | -0.33

Variant | SGCB cell-surface expression functional score (log10)
A224G | -0.16
P143M | 0.69
I86Y | -0.61
S272I | 0.34
S164Q | -0.96
G274W | -0.13
K19H | 0.21
N157F | -0.21
T238F | 0.86
G93N | -0.14
N140C | -0.04
F233M | 1.15
M305N | -1.05
N141D | -0.21
V300T | 0.05
A2W | -0.4
S99T | -0.4
R51A | 0.1
G96N | -2.04
S271C | -0.06
Y184M | -1.01
K41G | -0.27
V283S | -0.34
A7N | 0.06

Variant | SGCB cell-surface expression functional score (log10)
T83L | 0.1
R130M | 0.56
V261F | -1.31
E240W | 0.422
E133S | 0.19
D311K | -0.22
D48Y | 0.4
N312M | 0.01
V68T | 0.29
H36I | 0.09
R60L | 0.11
I225P | -1.25
G306C | -0.99
V195N | -1.73
T265K | 0.32
T83V | -0.11
K124R | 0.3
I178L | 0.3
T213L | -0.5
C67D | 0.11
I78M | -0.34
S210Y | -2.28
S161D | -0.8
N157A | 0.08

Variant | SGCB cell-surface expression functional score (log10)
G62S | 0.18
V195D | -2.29
H242R | 0.39
R91Q | 0.15
A6V | 0.22
V195F | -1.74
K54S | 0.14
T205N | -1.69
K41I | -0.28
Q169D | -0.37
A3V | 0.12
K237T | 0.58
T175N | -0.16
G128T | -0.56
N229Y | -0.25
S21P | 0.12
Q201Y | -0.31
S272Y | -0.29
F180D | -1.86
S164Y | -1.05
G274P | -0.32
D292M | 0.17
D48L | 0.18
G293E | 0.05

Variant | SGCB cell-surface expression functional score (log10)
Q303K | -0.33
E185S | 0.53
W282V | 0.04
L268T | -0.02
N304F | -0.09
G167A | -0.48
I218W | -0.149
G274T | 0.16
T126L | -0.13
R131Q | -0.6
V113G | -0.67
V155P | -1.4
L122Q | 0.48
A6G | 0.15
I208Y | -2.38
F40R | -0.05
T294D | 0.14
T205L | -0.11
D172S | 0.68
L107P | -0.47
N140I | -0.12
S279A | 0.39
Q276E | 0.14
N79R | -0.8

Variant | SGCB cell-surface expression functional score (log10)
P173Q | 0.62
P143R | -0.34
R174S | -0.45
V261D | 0.41
I78Q | -0.47
S271A | 0
V226K | -1.06
D48H | 0.33
G245Q | 0.99
N140E | 0.35
N33W | -0.14
H36T | -0.13
V18Q | 0.17
R284S | -0.16
T294K | -0.03
T138D | -0.39
Q201M | 1.02
F146Y | -0.75
G280A | -0.01
V32A | 0.26
K286E | -0.77
G62P | 0.36
Y184R | -1.19
I86P | -0.94

Variant | SGCB cell-surface expression functional score (log10)
I66A | -0.11
R227E | 1.04
G236S | -0.08
V298F | -1.04
E104N | -0.11
E35H | 0.32
Q276V | -0.56
G43I | -0.07
F40E | 0.01
N211H | -0.34
W87L | -0.04
L135E | -1.07
R29I | 0.13
I47H | 0.63
L179W | 1.37
H103G | 0.07
Q142K | -0.31
V261S | -0.04
K54I | 0.01
F40Q | 0.03
G259D | -1.69
C67Y | 0.04
G245K | 0.91
L108G | -0.9

Variant | SGCB cell-surface expression functional score (log10)
L64G | -0.2
A224C | 0.31
D183K | -0.36
Q148V | 0.28
P17L | -0.13
L52D | 0.39
G280M | 0.03
I92L | -0.39
N15M | 0.35
G280L | -0.28
T265C | -0.3
R109W | 0.09
S272D | -0.3
T266Q | 1.04
A88K | 0.62
L179Q | -0.03
N177G | 0.05
N253G | 0.43
V263K | -0.87
R23H | 0.2
A224K | -2.05
D281S | -0.22
G93D | -0.19
D48A | 0.6

Variant | SGCB cell-surface expression functional score (log10)
Y44C | 0.8
Q308A | -0.46
R284I | -0.39
G278E | 0.27
M243C | 0.71
G106I | -1.82
G228Y | -2.12
A291F | 0.25
E240N | 0.97
I166R | -0.29
D172H | 0.44
R207G | -1.44
D292E | 0.1
I92A | -1.94
G293R | -0.02
L108P | -1.13
F73Y | 0.84
Q303D | 0.36
K297G | -0.21
D292P | -0.16
K159G | 0.43
M1F | -0.28
E28C | 0.35
V300Y | -0.33

Variant | SGCB cell-surface expression functional score (log10)
V89P | -0.88
D165G | -0.11
A7H | -0.54
V136R | -0.57
N217K | 0.3
H53E | -0.28
G59I | -0.01
I218Y | -1.39
Q303I | 0.25
E49K | 0.42
N63I | -0.14
G306A | -0.83
R30A | 0.22
L277H | 0.19
H190Q | 0.16
P313L | -0.14
S164E | -0.83
V77D | 0.07
L135F | -0.08
S181W | -1.97
P94Y | 0.29
L295A | -0.91
S154G | -0.24
R207F | -1.57

Variant | SGCB cell-surface expression functional score (log10)
V298P | -0.53
G149D | -0.25
F170P | -1.16
M289C | -0.54
S279Q | -0.19
V263P | -1.18
H242G | 0.87
Q112M | -0.17
S214M | -0.57
T55H | 0.01
T175F | 0.17
K124D | -0.66
Q176H | -0.38
S38W | -0.17
I92F | -0.74
G139T | -0.23
P46A | -0.03
Y123F | 0.2
C67L | 0.25
D275E | -0.21
G128D | -0.05
L268K | -1.12
K286V | 0.03
P269T | 0.41

Variant | SGCB cell-surface expression functional score (log10)
G278Y | 0.08
K237I | 0.24
V195G | -1.83
S38T | -0.04
N132M | -0.85
S193G | 0.24
D221N | -0.22
F146G | -0.94
N33H | 0.48
G293Y | -0.17
V136Y | 0.15
S204T | -0.17
F189E | -1.49
H120N | 0.06
G16V | 0.38
A212Y | 0.86
E49F | 0.11
C307K | 0.23
A7T | 0.27
S271P | -0.56
C307V | -1.17
L295G | -0.87
